Test results published in PMC4587294 (Nanomedicine, 2015).
“And” between values parts separate entries of the source, which are not always exact repeats. Equal values may be shown once.

Experiments:
AUC = target: the molecule itself; experiment: AUC
STEM mass measurement = target: the molecule itself; experiment: STEM mass measurement

B1: T2i88-8-pf self-assembling protein nanoparticle (SAPN) chain (designed binder)
chain: MGHHHHHHASWKWDGGLVPRGSWQTWNAKWDQWSNDWNAWRSDWQAWKDDWAYWTLTWKYGELYSKLAELERRLEELAKFVAAWTLKAAAVDLELAALRRRLEELARGGSGANANPNANPNANPNANP
- stoichiometry N (AUC): ~180 chains per nanoparticle
- stoichiometry N (STEM mass measurement): 195 peptide chains per nanoparticle and ~180 peptide chains per particle
